From patent US20230078601A1 (CLEVELAND CLINIC FOUNDATION, published 2023)

Experiments:
[1] = biological target: human Anti-Mullerian Hormone Receptor II (AMHR2), full length (human) (UniProt Q16671); assay: flow cytometry on AMHR2-OVCAR8 cells, mAb at 1 µg/ml
[2] = biological target: human Anti-Mullerian Hormone Receptor II (AMHR2), full length (human) (UniProt Q16671); assay: flow cytometry on primary HGSOC-2 cells
[3] = biological target: human Anti-Mullerian Hormone Receptor II (AMHR2), full length (human) (UniProt Q16671); assay: flow cytometry on primary HGSOC-1 cells
[4] = biological target: human Anti-Mullerian Hormone Receptor II (AMHR2), full length (human) (UniProt Q16671); assay: flow cytometry competition on AMHR2-OVCAR8 cells: 4D12G1 mAb at 1 µg/ml with recombinant ovalbumin at 10 µg/ml; 91 % without competitor in FIG. 2E
[5] = biological target: human Anti-Mullerian Hormone Receptor II (AMHR2), full length (human) (UniProt Q16671); assay: flow cytometry competition on AMHR2-OVCAR8 cells: 4D12G1 mAb at 1 µg/ml with recombinant ovalbumin at 1 µg/ml; 91 % without competitor in FIG. 2E
[6] = biological target: human Anti-Mullerian Hormone Receptor II (AMHR2), full length (human) (UniProt Q16671); assay: flow cytometry competition on AMHR2-OVCAR8 cells: 4D12G1 mAb at 1 µg/ml with recombinant ovalbumin at 100 µg/ml; 91 % without competitor in FIG. 2E

human Anti-Mullerian Hormone Receptor II (AMHR2), full length (human), sequence (Q16671 18-573 limits assumed): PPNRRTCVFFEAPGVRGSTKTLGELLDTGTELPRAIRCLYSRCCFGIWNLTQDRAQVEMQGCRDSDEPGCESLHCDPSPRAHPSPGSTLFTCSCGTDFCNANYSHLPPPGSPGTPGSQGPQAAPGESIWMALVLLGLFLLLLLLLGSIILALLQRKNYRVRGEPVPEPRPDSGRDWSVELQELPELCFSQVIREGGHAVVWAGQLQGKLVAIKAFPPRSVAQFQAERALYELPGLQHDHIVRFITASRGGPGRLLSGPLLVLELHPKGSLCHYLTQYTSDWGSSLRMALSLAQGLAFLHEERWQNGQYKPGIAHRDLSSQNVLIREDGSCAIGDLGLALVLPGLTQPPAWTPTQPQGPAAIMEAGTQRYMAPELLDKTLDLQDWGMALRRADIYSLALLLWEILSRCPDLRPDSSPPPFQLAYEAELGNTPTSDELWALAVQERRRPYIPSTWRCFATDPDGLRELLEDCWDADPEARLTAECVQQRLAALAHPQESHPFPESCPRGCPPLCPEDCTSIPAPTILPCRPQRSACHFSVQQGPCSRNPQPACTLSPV

% of cells in the positive gate [1]	percent of cells bound [2]	percent of cells bound [3]	% of cells in the 4D12G1-positive gate with ovalbumin at 10 µg/ml [4]	% of cells in the 4D12G1-positive gate with ovalbumin at 1 µg/ml [5]	% of cells in the 4D12G1-positive gate with ovalbumin at 100 µg/ml [6]	Substance
1.1%	1.1%	1.5%				isotype control mAb (antibody)
			86%	88%	88%	recombinant ovalbumin (from UniProt P01012 2-386)
